The values below come from PMC6406002, “Comparison of the functional properties of trimeric and monomeric CaiT of Escherichia coli” (Scientific Reports, 2019).

The data set deals with the molecule itself. Briefly: SEC; gel filtration (Superdex 10/300 GL) after incubation at given temperature for 60 min in 100 mM potassium phosphate pH 7.5, 2 mM β-mercaptoethanol, 0.04% DDM. A general note: In gel filtration, larger molecules generally elute earlier.

B1: L-carnitine/γ-butyrobetaine antiporter CaiT of Escherichia coli, wild-type (natural protein)
chain: not shown
notes: CaiT, L-carnitine/γ-butyrobetaine antiporter of E. coli; the caiT gene cloned into pET21a; also called CaiT(WT); WT; source: E. coli JW0039 with pET21a/caiT, purified (Ni-NTA), in detergent (DDM)
Take B1: the binding result was “binds”.
